PMC8571082 (2021)

What was measured:
[1] = target: T1, factor inhibiting HIF-1 (FIH-1), full-length (human, UniProt Q9NWT6 1-349); test: ITC; -αKG, +EDTA
[2] = target: T1, factor inhibiting HIF-1 (FIH-1), …; test: ITC; +αKG, -EDTA
[3] = target: T1, factor inhibiting HIF-1 (FIH-1), …; test: ITC; +αKG, +EDTA
[4] = target: T1, factor inhibiting HIF-1 (FIH-1), …; test: ITC; -αKG, -EDTA

T1 sequence (Q9NWT6 whole entry): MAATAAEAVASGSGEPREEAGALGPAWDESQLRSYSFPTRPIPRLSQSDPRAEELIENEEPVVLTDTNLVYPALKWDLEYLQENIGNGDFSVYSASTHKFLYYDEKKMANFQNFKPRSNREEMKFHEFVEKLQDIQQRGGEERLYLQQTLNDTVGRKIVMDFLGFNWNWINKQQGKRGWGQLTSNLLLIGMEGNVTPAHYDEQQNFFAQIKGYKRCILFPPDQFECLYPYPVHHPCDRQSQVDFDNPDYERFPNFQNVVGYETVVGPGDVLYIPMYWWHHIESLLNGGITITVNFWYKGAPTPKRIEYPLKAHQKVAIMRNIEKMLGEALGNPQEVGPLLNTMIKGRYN

B1: Mint3NT, N-terminal fragment (1–214) of Mint3 (domain or fragment)
chain: MDFPTISRSPSGPPAMDLEGPRDILVPSEDLTPDSQWDPMPGGPGSLSRMELDESSLQELVQQFEALPGDLVGPSPGGAPCPLHIATGHGLASQEIADAHGLLSAEAGRDDLLGLLHCEECPPSQTGPEEPLEPAPRLLQPPEDPDEDSDSPEWVEGASAEQEGSRSSSSSPEPWLETVPLVTPEEPPAGAQSPETLASYPAPQEVPGPCDHED
Kd [1]: 8.1 µM
Kd [2]: 1000 nM
Kd [3]: 2200 nM
Kd [4]: 3.4 µM
